In the supplement of paper PMC12764529:
± gives the half width of the 95% confidence interval.

What was measured:
[1] = folding stability dG unfold (combined trypsin and chymotrypsin); higher = more stable
How it was run: (§1)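 Digests were run with trypsin and chymotrypsin at 11 concentrations in threefold dilutions, plus a no-protease condition, on designed mini-proteins in a PA-tagged cDNA display construct. The mini-proteins were under 80 residues, had no cysteine, and were kept only when AlphaFold2 dimer inter-PAE was above 15. After sequencing, Bayesian fitting of the counts gave K50, from which unfolding free energy was derived against a sequence-predicted unfolded-state K50 and a shared folded-state K50, per protease or combined.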

[2] = folding stability dG unfold from trypsin proteolysis; higher = more stable
How it was run: as §1

[3] = folding stability dG unfold from chymotrypsin proteolysis; higher = more stable
How it was run: as §1

Q: Which “folding stability dG unfold” value [1] does the source give for “SAGGMKTVNLTYTRYLPDKTLEEAKELAKKDLESRGLKILSLPVSREPGAGVVTVSATVEVAPPSLLSAGGS [r16_287_JUSTAS]” here?
A: The value was 16 ± 1.13 kJ/mol.

Q: And the “folding stability dG unfold” value [2]?
A: Its value is 15.3 ± 0.502 kJ/mol.

Q: What about the “folding stability dG unfold” value [3] of the same sequence?
A: The value was 16.7 ± 0.418 kJ/mol.

Q: Which results are given for “SAGGSAGGSAAKIVDINISVRRSPENGYWKIPITIRIKGPNGKEQEIDLTMVFKIPPGQPLFSAGGSAGGSA [r18_95_TrROS]”?
A: folding stability dG unfold [1]: 12.1 ± 0.628 kJ/mol; folding stability dG unfold [2]: 11.8 ± 0.301 kJ/mol; folding stability dG unfold [3]: 12.1 ± 0.18 kJ/mol

Q: Which results are given for “SAGGSAGGSSKNGKPKPTIKVEMPDKPGPHEIPIPESDPDEAKTLAEELAQKWPGVPVRIEPTSAGGSAGGS [r12_601_TrROS]”?
A: folding stability dG unfold [1]: 2.43 ± 0.544 kJ/mol; folding stability dG unfold [2]: -1.23 ± 0.418 kJ/mol; folding stability dG unfold [3]: 4.14 ± 0.238 kJ/mol

Q: Which “folding stability dG unfold” value [1] does the source give for “SAGGMTLEDLAGQSIEEALDLIEENGWDEVTITYPGGSKIEIKYNKDGPIEVEWENPDGNKQTFTIPSAGGS [r8_51_TrROS]” here?
A: The value was 3.49 ± 0.347 kJ/mol.

Q: What about the “folding stability dG unfold” value [2] of the same sequence?
A: The value was 2.69 ± 0.31 kJ/mol.

Q: And the “folding stability dG unfold” value [3]?
A: Its value is 3.8 ± 0.418 kJ/mol.

Q: With “SAGGSAGGSAGDEWITIWFLFPSPEQAKDIADPLASNGLNIDVETHRMPDGNYWVNITIPSAGGSAGGSAGG [r11_677_TrROS]” as the sequence, how does the “folding stability dG unfold” value [1] read?
A: Its value is 12.1 ± 0.46 kJ/mol.

Q: And the “folding stability dG unfold” value [2]?
A: The value was 9.24 ± 0.385 kJ/mol.

Q: And the “folding stability dG unfold” value [3]?
A: Its value is 14 ± 0.372 kJ/mol.

Q: Which results are given for “SAGGSAAPLPPDETEVRVEYRYDPEKGVLVITTTTTRFTPEGGATPLETRPVVVEVTEEEKKKVELSAGGSA [r15_191_JUSTAS]”?
A: folding stability dG unfold [1]: 4.88 ± 0.418 kJ/mol; folding stability dG unfold [2]: 5.22 ± 0.192 kJ/mol; folding stability dG unfold [3]: 4.35 ± 0.397 kJ/mol

Q: Which results are given for “SAGGMKPGAPVEIEFPIPGIPPGRRFRIMIHYPNGKHVEAEYTDNTIKIEIPVPDGDNIHHIYIYFYSAGGS [r16_179_TrROS]”?
A: folding stability dG unfold [1]: 16.1 ± 0.502 kJ/mol; folding stability dG unfold [2]: 13.7 ± 0.351 kJ/mol; folding stability dG unfold [3]: 18.1 ± 0.46 kJ/mol

Q: For “SAGGSAGGSMTITVTKVDFPPGLYEGLTIEELRKLLGDENLPIKETPVTVTVTPEKLAALLLSSAGGSAGGS [r12_178_JUSTAS]”, which “folding stability dG unfold” value [1] is on record?
A: Its value is 5.69 ± 0.402 kJ/mol.

Q: What about the “folding stability dG unfold” value [2] of the same sequence?
A: Its value is 7.08 ± 0.151 kJ/mol.

Q: And the “folding stability dG unfold” value [3]?
A: The value was 3.26 ± 0.335 kJ/mol.

Q: With “SAGWFISIKYKDPPTGRKRKISIPIPPGDPWLKELGFPSLDGLAKWLAPEMREEGHDVKDVKVEIMPPKSAG [r5_722_TrROS]” as the sequence, how does the “folding stability dG unfold” value [1] read?
A: The value was 15.7 ± 0.669 kJ/mol.

Q: And the “folding stability dG unfold” value [2]?
A: The value was 14.1 ± 0.795 kJ/mol.

Q: What about the “folding stability dG unfold” value [3] of the same sequence?
A: Its value is 17.4 ± 0.247 kJ/mol.

Q: What does the source list for “SAGMKPPKIEITIEVVEKDGELYVRVKIKLENGEEIEIVMSLDEVKELLKKLFPEITEIEVEEVRLPPKSAG [r5_25_TrROS_Hall]”?
A: folding stability dG unfold [1]: 15.6 ± 2.09 kJ/mol; folding stability dG unfold [2]: 9.99 ± 0.502 kJ/mol; folding stability dG unfold [3]: 17.1 ± 0.753 kJ/mol

Q: Which “folding stability dG unfold” value [1] does the source give for “SAGGSAGGKKKKKPPKKKYFYVEIEIELTPEEIEKLKELFPDVKVEVEEKDGKLRVRITVRVKLSAGGSAGG [r6_685_TrROS_Hall]” here?
A: Its value is 13.6 ± 0.364 kJ/mol.

Q: And the “folding stability dG unfold” value [2]?
A: Its value is 11.7 ± 0.669 kJ/mol.

Q: And the “folding stability dG unfold” value [3]?
A: The value was 14.6 ± 0.209 kJ/mol.

Q: Which “folding stability dG unfold” value [1] does the source give for “SAGGSAPSSGNVLEIKVEKLPDGTLVGTLTVKDPNSSNTTTIEITIPSSKTPEEAEAELKKIVEEASAGGSA [r15_181_JUSTAS]” here?
A: Its value is 8.84 ± 0.238 kJ/mol.

Q: What about the “folding stability dG unfold” value [2] of the same sequence?
A: Its value is 8.84 ± 0.285 kJ/mol.

Q: What about the “folding stability dG unfold” value [3] of the same sequence?
A: Its value is 8.74 ± 0.105 kJ/mol.

Q: With “SAGGKVYYIEIPPELLEAFPDLVVEPVEQPEDFVVAPVFLSDKVLLVPIRVFSEDGKELFDFTLTSNPSAGG [r13_129_TrMRF]” as the sequence, how does the “folding stability dG unfold” value [1] read?
A: The value was 6.79 ± 0.155 kJ/mol.

Q: And the “folding stability dG unfold” value [2]?
A: The value was 4.94 ± 0.113 kJ/mol.

Q: And the “folding stability dG unfold” value [3]?
A: The value was 7.4 ± 0.1 kJ/mol.

Q: Which “folding stability dG unfold” value [1] does the source give for “SAGGMPEDMKLKFKVVDFRPHPHPDGYQIVELFYNDKLLRRLRVPPGLAVKLAKELPEDVALVTLPESAGGS [r8_41_TrMRF]” here?
A: The value was 5.35 ± 0.377 kJ/mol.

Q: What about the “folding stability dG unfold” value [2] of the same sequence?
A: Its value is 3.46 ± 0.36 kJ/mol.

Q: What about the “folding stability dG unfold” value [3] of the same sequence?
A: The value was 6.4 ± 0.586 kJ/mol.

Q: Which results are given for “SAGGSAGGSAGGSSSSASVEVKTETSVSYDPSTGRTYTTTTSKYPLTNTTVTTTTTDPTSAGGSAGGSAGGS [r10_187_JUSTAS]”?
A: folding stability dG unfold [1]: 2.6 ± 0.711 kJ/mol; folding stability dG unfold [2]: 4 ± 0.126 kJ/mol; folding stability dG unfold [3]: 0.58 ± 0.628 kJ/mol

Q: For “SAGGSAGGSKKDPEDNPEQAKPPIPPIRVEIYPPDGQPETFEFHSLEEITEWIQERGYTVKIESAGGSAGGS [r12_244_TrROS]”, which “folding stability dG unfold” value [1] is on record?
A: Its value is 4.07 ± 0.272 kJ/mol.

Q: What about the “folding stability dG unfold” value [2] of the same sequence?
A: The value was 2.79 ± 0.092 kJ/mol.

Q: What about the “folding stability dG unfold” value [3] of the same sequence?
A: The value was 4.7 ± 0.213 kJ/mol.

Q: For “SPLTAEQIKKLLRELFPNAKIVSIEYDKENKTVTITFEDGLKIEVTVTEDGRVIIRITLPGKEITIEIEVSA [r9_304_TrROS_Hall]”, which “folding stability dG unfold” value [1] is on record?
A: The value was 18.6 ± 0.92 kJ/mol.

Q: What about the “folding stability dG unfold” value [2] of the same sequence?
A: The value was 17.6 ± 1.26 kJ/mol.

Q: And the “folding stability dG unfold” value [3]?
A: Its value is 16.8 ± 0.962 kJ/mol.
